Earlier results on 1 substance are cited in article PMC12489035.

The target in this data set is APP tail cytoplasmic tail (Homo sapiens) (UniProt P05067).
Sequence of APP tail cytoplasmic tail (Homo sapiens) (P05067 724-770): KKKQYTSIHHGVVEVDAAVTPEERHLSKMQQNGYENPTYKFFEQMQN

Sequence of AP-4 mu4 subunit (O00189 whole entry): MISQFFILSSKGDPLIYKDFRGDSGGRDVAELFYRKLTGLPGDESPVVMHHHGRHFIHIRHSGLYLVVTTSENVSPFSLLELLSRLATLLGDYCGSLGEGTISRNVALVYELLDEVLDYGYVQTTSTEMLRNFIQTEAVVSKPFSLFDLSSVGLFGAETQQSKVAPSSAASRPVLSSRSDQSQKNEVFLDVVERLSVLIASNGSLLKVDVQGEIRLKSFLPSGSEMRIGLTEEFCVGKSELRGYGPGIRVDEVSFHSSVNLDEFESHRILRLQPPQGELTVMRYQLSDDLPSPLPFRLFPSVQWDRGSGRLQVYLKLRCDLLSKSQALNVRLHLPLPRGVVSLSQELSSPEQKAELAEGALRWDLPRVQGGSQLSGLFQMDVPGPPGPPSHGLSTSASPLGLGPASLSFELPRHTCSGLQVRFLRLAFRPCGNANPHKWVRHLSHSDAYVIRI

Turning to AP-4 mu4 subunit (from UniProt O00189), the Kd was 27.7 µM.
